± gives the uncertainty stated by the source.

The data set can be described thus: abundance fitness (aPCA) (normalised: wild type 0, dead -1); higher = more abundant; growth selection in yeast, the domain comes from the species named. The conditions noted are these: Saccharomyces cerevisiae (strain ATCC 204508 / S288c).
“E3 ubiquitin-protein ligase RSP5 T357S, P39940” showed an abundance fitness of -0.1 ± 0.062.
With “E3 ubiquitin-protein ligase RSP5 T357V, P39940”, the abundance fitness was -0.247 ± 0.059.
The result for “E3 ubiquitin-protein ligase RSP5 T357W, P39940” reads -0.695 ± 0.061; that for “E3 ubiquitin-protein ligase RSP5 T357Y, P39940”, -0.955 ± 0.31; that for “E3 ubiquitin-protein ligase RSP5 T358D, P39940”, -0.659 ± 0.091.
The result for “E3 ubiquitin-protein ligase RSP5 T358E, P39940” reads -0.761 ± 0.051; that for “E3 ubiquitin-protein ligase RSP5 T358G, P39940”, -0.535 ± 0.044; that for “E3 ubiquitin-protein ligase RSP5 T358H, P39940”, -0.411 ± 0.076.
The substance “E3 ubiquitin-protein ligase RSP5 T358I, P39940” showed an abundance fitness of -1.07 ± 0.38.
Consider “E3 ubiquitin-protein ligase RSP5 T358K, P39940”, for which the abundance fitness is -0.658 ± 0.12.
“E3 ubiquitin-protein ligase RSP5 T358L, P39940” displayed an abundance fitness of -0.886 ± 0.063.
In turn, “E3 ubiquitin-protein ligase RSP5 T358N, P39940” registered an abundance fitness of -0.767 ± 0.12.
Regarding “E3 ubiquitin-protein ligase RSP5 T358P, P39940”, the abundance fitness was -0.955 ± 0.067.
Substance “E3 ubiquitin-protein ligase RSP5 T358Q, P39940” displayed an abundance fitness of -0.326 ± 0.057.
As to “E3 ubiquitin-protein ligase RSP5 T358R, P39940”, the abundance fitness is -0.781 ± 0.046.
On to “E3 ubiquitin-protein ligase RSP5 T358S, P39940”, for which the abundance fitness is -0.028 ± 0.058.
On to “E3 ubiquitin-protein ligase RSP5 T358V, P39940”, for which the abundance fitness is -0.729 ± 0.071.
In the case of “E3 ubiquitin-protein ligase RSP5 T358W, P39940”, the abundance fitness is -0.626 ± 0.064.
Turning to “E3 ubiquitin-protein ligase RSP5 T358Y, P39940”, the abundance fitness is -0.633 ± 0.12.
“E3 ubiquitin-protein ligase RSP5 V350A, P39940” registered an abundance fitness of -0.275 ± 0.043.
The result for “E3 ubiquitin-protein ligase RSP5 V350C, P39940” reads -0.097 ± 0.066.
In turn, “E3 ubiquitin-protein ligase RSP5 V350D, P39940” returned an abundance fitness of -0.604 ± 0.11.
Turning to “E3 ubiquitin-protein ligase RSP5 V350E, P39940”, the abundance fitness is -0.346 ± 0.057.
On to “E3 ubiquitin-protein ligase RSP5 V350F, P39940”, for which the abundance fitness worked out at 0.044 ± 0.13.
With “E3 ubiquitin-protein ligase RSP5 V350G, P39940”, the abundance fitness is -0.891 ± 0.046.
As to “E3 ubiquitin-protein ligase RSP5 V350K, P39940”, the abundance fitness is -0.537 ± 0.065.
In turn, “E3 ubiquitin-protein ligase RSP5 V350L, P39940” returned an abundance fitness of 0.028 ± 0.048.
The substance “E3 ubiquitin-protein ligase RSP5 V350M, P39940” came in with an abundance fitness of 0.109 ± 0.085.
“E3 ubiquitin-protein ligase RSP5 V350N, P39940” yielded an abundance fitness of -0.49 ± 0.095.
As for “E3 ubiquitin-protein ligase RSP5 V350Q, P39940”, the abundance fitness is -0.295 ± 0.066.
In the case of “E3 ubiquitin-protein ligase RSP5 V350R, P39940”, the abundance fitness was -0.546 ± 0.042.
“E3 ubiquitin-protein ligase RSP5 V350S, P39940” returned an abundance fitness of -0.502 ± 0.078.
The substance “E3 ubiquitin-protein ligase RSP5 V350W, P39940” came in with an abundance fitness of -0.359 ± 0.057.
The substance “E3 ubiquitin-protein ligase RSP5 V350Y, P39940” yielded an abundance fitness of -0.136 ± 0.14.
As to “E3 ubiquitin-protein ligase RSP5 V360A, P39940”, the abundance fitness was -0.161 ± 0.046.
Take “E3 ubiquitin-protein ligase RSP5 V360C, P39940”: the abundance fitness is -0.018 ± 0.062.
In turn, “E3 ubiquitin-protein ligase RSP5 V360D, P39940” displayed an abundance fitness of -0.098 ± 0.056.
Consider “E3 ubiquitin-protein ligase RSP5 V360E, P39940”, for which the abundance fitness was -0.154 ± 0.053.
As for “E3 ubiquitin-protein ligase RSP5 V360F, P39940”, the figure is 0.058 ± 0.11; as for “E3 ubiquitin-protein ligase RSP5 V360H, P39940”, 0.043 ± 0.059; as for “E3 ubiquitin-protein ligase RSP5 V360I, P39940”, 0.186 ± 0.1.
“E3 ubiquitin-protein ligase RSP5 V360L, P39940” came in with an abundance fitness of -0.03 ± 0.044.
Substance “E3 ubiquitin-protein ligase RSP5 V360M, P39940” came in with an abundance fitness of 0.022 ± 0.062.
With “E3 ubiquitin-protein ligase RSP5 V360N, P39940”, the abundance fitness came out at 0.014 ± 0.093.
Consider “E3 ubiquitin-protein ligase RSP5 V360P, P39940”, for which the abundance fitness was -0.871 ± 0.061.
The result for “E3 ubiquitin-protein ligase RSP5 V360Q, P39940” reads -0.184 ± 0.15; that for “E3 ubiquitin-protein ligase RSP5 V360R, P39940”, -0.207 ± 0.041; that for “E3 ubiquitin-protein ligase RSP5 V360T, P39940”, -0.095 ± 0.064.
For the substance “E3 ubiquitin-protein ligase RSP5 V360W, P39940”, the abundance fitness was -0.06 ± 0.069.
With “E3 ubiquitin-protein ligase RSP5 V360Y, P39940”, the abundance fitness was 0.194 ± 0.084.
“E3 ubiquitin-protein ligase RSP5 W337A, P39940” came in with an abundance fitness of -0.649 ± 0.06.
For “E3 ubiquitin-protein ligase RSP5 W337C, P39940”, the abundance fitness is -0.4 ± 0.087.
As for “E3 ubiquitin-protein ligase RSP5 W337D, P39940”, the figure is -0.504 ± 0.074; as for “E3 ubiquitin-protein ligase RSP5 W337E, P39940”, -0.525 ± 0.066; as for “E3 ubiquitin-protein ligase RSP5 W337F, P39940”, -0.045 ± 0.093.
The result for “E3 ubiquitin-protein ligase RSP5 W337G, P39940” reads -0.503 ± 0.051; that for “E3 ubiquitin-protein ligase RSP5 W337H, P39940”, -0.539 ± 0.076.
The substance “E3 ubiquitin-protein ligase RSP5 W337I, P39940” displayed an abundance fitness of -0.23 ± 0.085.
Substance “E3 ubiquitin-protein ligase RSP5 W337K, P39940” came in with an abundance fitness of -0.713 ± 0.073.
The result for “E3 ubiquitin-protein ligase RSP5 W337L, P39940” reads -0.53 ± 0.06.
As to “E3 ubiquitin-protein ligase RSP5 W337N, P39940”, the abundance fitness was -0.641 ± 0.14.
“E3 ubiquitin-protein ligase RSP5 W337P, P39940” came in with an abundance fitness of -0.883 ± 0.061.
On to “E3 ubiquitin-protein ligase RSP5 W337Q, P39940”, for which the abundance fitness is -0.637 ± 0.11.
As for “E3 ubiquitin-protein ligase RSP5 W337R, P39940”, the abundance fitness is -0.771 ± 0.052.
“E3 ubiquitin-protein ligase RSP5 W337S, P39940”: the abundance fitness is -0.622 ± 0.052.
For “E3 ubiquitin-protein ligase RSP5 W337Y, P39940”, the abundance fitness is -0.366 ± 0.1.

The values are drawn from the Human Domainome abundance scans (Beltran et al. 2025).
